The results in this text go back to paper PMC4549621, “Molecular basis for mid-region amyloid-β capture by leading Alzheimer's disease immunotherapies” (Scientific Reports, 2015).

This experiment deals with T1, amyloid-β peptide residues 12–28 (Aβ12–28), wild type.
T1 construct: cut product of the amyloid precursor protein; numbers count on: the Aβ peptide (Asp1 of Aβ); also called Aβ peptide; mid-region of the Aβ peptide; source: bought: Anaspec (95% purity)
T1 chain: VHHQKLVFFAEDVGSNK
Put plainly: crystal structure; Fab:Aβ12–28 mixed at molar ratio 1:2, dialysed in 10 mM HEPES pH 7.5; crystals from 16% w/v PEG 3350, 50 mM sodium citrate pH 4, 295 K; 2.4 Å, two complexes in the asymmetric unit. The following applies: both partners purified.

B1: solanezumab Fab fragment (recombinant, Asn55(H2)Ser) (Fab, V domains shown)
VH: EVQLVESGGGLVQPGGSLRLSCAASGFTFSRYSMSWVRQAPGKGLELVAQINSVGSSTYYPDTVKGRFTISRDNAKNTLYLQMNSLRAEDTAVYYCASGDYWGQGTLVTVSS
VL: DVVMTQSPLSLPVTLGQPASISCRSSQSLIYSDGNAYLHWFLQKPGQSPRLLIYKVSNRFSGVPDRFSGSGSGTDFTLKISRVEAEDVGVYYCSQSTHVPWTFGQGTKVEIK
notes: Fab heavy chain of solanezumab; glycosylation site removed by Asn55(H2)Ser; Fab light chain of solanezumab; Parent antibody is IgG1; only the Fab portion was made; source: FreeStyle 293-F cells, co-transfected, purified from supernatant (Ni-NTA, SEC)
B1: the binding result is “binds”.
